# Assay results from patent US20220195015A1.
# Target: SARS-CoV-2 spike (S) protein on pseudotyped HIV-1 reporter virus (SARS-CoV-2) (UniProt P0DTC2)
# Experiment: cell-based or functional assay
# C144 (antibody), sequence (VH): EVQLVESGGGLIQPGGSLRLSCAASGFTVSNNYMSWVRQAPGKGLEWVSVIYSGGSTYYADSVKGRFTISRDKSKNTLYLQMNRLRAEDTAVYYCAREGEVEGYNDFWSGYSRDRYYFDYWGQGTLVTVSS
# C144 (antibody), sequence (VL): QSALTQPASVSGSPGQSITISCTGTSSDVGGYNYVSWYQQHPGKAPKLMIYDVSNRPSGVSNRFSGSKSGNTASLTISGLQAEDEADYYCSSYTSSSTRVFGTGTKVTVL
substance,measurement,value
C144 (antibody),IC50,0.00286 µg/mL
same,IC90,0.0405 µg/mL
